The data set deals with the molecule itself. Description: negative stain and cryo-electron microscopy of assemblies on liposomes.

B1: EndophilinA1 (natural protein, human, UniProt Q99962 1-352, looked up)
chain: MSVAGLKKQFHKATQKVSEKVGGAEGTKLDDDFKEMERKVDVTSRAVMEIMTKTIEYLQPNPASRAKLSMINTMSKIRGQEKGPGYPQAEALLAEAMLKFGRELGDDCNFGPALGEVGEAMRELSEVKDSLDIEVKQNFIDPLQNLHDKDLREIQHHLKKLEGRRLDFDYKKKRQGKIPDEELRQALEKFDESKEIAESSMFNLLEMDIEQVSQLSALVQAQLEYHKQAVQILQQVTVRLEERIRQASSQPRREYQPKPRMSLEFPTGDSTQPNGGLSHTGTPKPSGVQMDQPCCRALYDFEPENEGELGFKEGDIITLTNQIDENWYEGMLHGHSGFFPINYVEILVALPH
On to B1, for which the binding result is “binds”.
